Assay results as given in patent publication US20210115447, “NUCLEIC ACID APTAMERS TARGETING LYMPHOCYTE ACTIVATION GENE 3 (LAG-3) AND USES THEREOF” (Oneness Biotech Co., Ltd., published 2021).

T1: LAG-3 (lymphocyte activation gene 3) (Homo sapiens, UniProt P18627 P18627:23-450)
T1 sequence: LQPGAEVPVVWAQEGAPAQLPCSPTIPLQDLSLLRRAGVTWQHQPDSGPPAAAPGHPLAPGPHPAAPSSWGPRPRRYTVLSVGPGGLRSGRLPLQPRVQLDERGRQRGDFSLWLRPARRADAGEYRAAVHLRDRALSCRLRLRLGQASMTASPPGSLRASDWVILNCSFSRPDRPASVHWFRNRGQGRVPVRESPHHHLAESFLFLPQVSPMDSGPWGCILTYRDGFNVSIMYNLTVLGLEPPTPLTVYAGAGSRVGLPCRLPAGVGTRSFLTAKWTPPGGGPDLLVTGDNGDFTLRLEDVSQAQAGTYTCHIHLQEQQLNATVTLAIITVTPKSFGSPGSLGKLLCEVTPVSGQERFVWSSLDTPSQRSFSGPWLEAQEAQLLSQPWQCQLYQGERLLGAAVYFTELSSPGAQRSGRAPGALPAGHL


How the values were obtained:
[1] = molecular target: T1, LAG-3 (lymphocyte activation gene 3); assay: pulldown; His-LAG-3 on nickel beads, qPCR; settings: tags: His-tagged, attached to nickel coated beads or plate wells; label: 5'-biotin
Experimental: (§1) To directly test binding of LAG-3 aptamers to LAG-3, in vitro binding assays were performed using His-tagged recombinant LAG-3 attached to nickel coated beads or nickel coated wells of a plate. Bound LAG-3 aptamers were eluted and detected by qPCR. Using the bead based assay, binding of aptamers B4 and B8 to recombinant LAG-3 increased in a concentration dependent manner. FIG. 1C. […] FIG. 1D.
To identify the minimal sequence of aptamer B4 that is involved in binding to LAG-3, various truncated versions of aptamer B4 were prepared and their binding activities to LAG-3 were investigated in the binding assays described herein, using R9R as a negative control. Aptamer sequences of these truncated versions of aptamer B4 and their dissociation constants (Kds) for binding to recombinant LAG-3 are shown in Table 2. Binding of aptamers B4, B4-SL2, B4-SL3, and B4-SL4 to recombinant LAG-3 increased in a concentration dependent manner. FIG. 1E. […] FIG. 1E.

[2] = molecular target: T1, LAG-3 (lymphocyte activation gene 3); assay: pulldown; concentration dependent; nickel beads, qPCR; settings: tags: His-tagged, attached to nickel coated beads or plate wells
Experimental: as §1

[3] = molecular target: T1, LAG-3 (lymphocyte activation gene 3); assay: pulldown; His-LAG-3 on nickel beads, bound aptamer eluted and detected by qPCR; settings: tags: His-tagged, attached to nickel coated beads or plate wells; label: 5'-biotin

Row | Binder | Kd [1] [µM] | also measured
1 | ACGGCGCTAACTGGGGGGGGTTAGTTCAATACATG (ssDNA) [5'Bio-B4-SL2] | 0.00805 | –
2 | CTGGGGGGGGTTAGTTCAATACATGCGGGCGGCCA (ssDNA) [5'Bio-B4-SL4] | 0.00947 | –
3 | B8 (ssDNA) DNA: TCCCTACGGCGCTAACTGGGGGGGGGTTAGACTTACACTCTTATTCGGCCACCGTGCTACAAC | – | binding result [2]: binds
4 | 5'Bio-B4 (ssDNA) DNA: TCCCTACGGCGCTAACTGGGGGGGGTTAGTTCAATACATGCGGGCGGCCACCGTGCTACAAC | – | Kd [3]: 0.0381 µM
5 | GCTAACTGGGGGGGGTTAGTTCAATACATGCGGGC (ssDNA) [5'Bio-B4-SL3] | 0.0107 | –
